Measured values as given in patent US20240400708A1.
Positions count from the first letter of the chain named. Names and notes keep the numbering of the source.

B1: feline IgG1a Fc mutant S428L, S434Y (antibody, part only; not given: Variable domains, not shown: another chain or arm of the molecule; small tags and cut ends)
constant: ASTTAPSVFPLAPSCGTTSGATVALACLVLGYFPEPVTVSWNSGALTSGVHTFPAVLQASGLYSLSSMVTVPSSRWLSDTFTCNVAHPPSNTKVDKTVRKTDHPPGPKPCDCPKCPPPEMLGGPSIFIFPPKPKDTLSISRTPEVTCLVVDLGPDDSDVQITWFVDNTQVYTAKTSPREEQFNSTYRVVSVLPILHQDWLKGKEFKCKVNSKSLPSPIERTISKAKGQPHEPQVYVLPPAQEELSRNKVSVTCLIKSFHPPDIAVEWEITGQPEPENNYRTTPPQLDSDGTYFVYSKLSVDRSHWQRGNTYTCSVLHEALHYHHTQKSLTQSPGK
B2: feline IgG1a Fc mutant S428L, S434F (antibody, part only; not given: Variable domains, not shown: another chain or arm of the molecule; small tags and cut ends)
constant: B1 constant with Y322F
B3: feline IgG1a Fc mutant S428Y, S434R (antibody, part only; not given: Variable domains, not shown: another chain or arm of the molecule; small tags and cut ends)
constant: B1 constant with L316Y, Y322R
B4: feline IgG1a Fc mutant S428Y, S434F (antibody, part only; not given: Variable domains, not shown: another chain or arm of the molecule; small tags and cut ends)
constant: B1 constant with L316Y, Y322F
B5: feline IgG1a Fc mutant S428Y, S434H (antibody, part only; not given: Variable domains, not shown: another chain or arm of the molecule; small tags and cut ends)
constant: B1 constant with L316Y, Y322H
B6: feline IgG1a Fc mutant S428Y, S434W (antibody, part only; not given: variable domains and light chain, not shown: another chain or arm of the molecule; small tags and cut ends)
constant: B1 constant with L316Y, Y322W
B7: feline IgG1a Fc mutant Q311K, S428Y (antibody, part only; not given: Variable domains, not shown: another chain or arm of the molecule)
constant: B1 constant with Q197K, L316Y, Y322S
B8: feline IgG1a Fc mutant S428M, S434F (antibody, part only; not given: variable domains and light chain, not shown: another chain or arm of the molecule; small tags and cut ends)
constant: B1 constant with L316M, Y322F
B9: feline IgG1a Fc mutant S428M, S434W (antibody, part only; not given: Variable domains, not shown: another chain or arm of the molecule; small tags and cut ends)
constant: B1 constant with L316M, Y322W
B10: feline IgG1a Fc mutant S428Y, S434Y (antibody, part only; not given: variable domains and light chain, not shown: another chain or arm of the molecule; small tags and cut ends)
constant: B1 constant with L316Y
B11: feline IgG1a Fc mutant S428M, S252Y (antibody, part only; not given: Variable domains, not shown: another chain or arm of the molecule; small tags and cut ends)
constant: B1 constant with S138Y, L316M, Y322S
B12: feline IgG1a Fc mutant S428M, S434Y (antibody, part only; not given: Variable domains, not shown: another chain or arm of the molecule; small tags and cut ends)
constant: B1 constant with L316M
B13: feline IgG1a Fc mutant S428L, S434H (antibody, part only; not given: Variable domains, not shown: another chain or arm of the molecule; small tags and cut ends)
constant: B1 constant with Y322H
B14: feline IgG1a Fc mutant S428L, S434W (antibody, part only; not given: Variable domains, not shown: another chain or arm of the molecule; small tags and cut ends)
constant: B1 constant with Y322W

target: Feline FcRn complex (FcRn-alpha subunit and beta-microglobulin) (feline); test: SPR (Biacore), feline FcRn captured on SA chip, IgG flowed over, pH 6

Kd [nM] | Binder
0.933 | B1
1.39 | B2
3.85 | B3
1.57 | B4
2.27 | B5
1.39 | B6
3.31 | B7
1.21 | B8
0.937 | B9
1.12 | B10
5.12 | B11
0.888 | B12
2.58 | B13
1.02 | B14

target: Feline FcRn complex (FcRn-alpha subunit and beta-microglobulin) (feline); test: SPR (Biacore), feline FcRn captured on SA chip, IgG flowed over, pH 7.4

Kd [nM] | Binder
22.2 | B1
46.4 | B2
39.7 | B4
24.1 | B6
35.9 | B7
38.2 | B8
25.3 | B9
24.1 | B10
124 | B11
25.2 | B12
43.9 | B13
41.8 | B14
